Substitutions are numbered along the chain they refer to. In names and notes the source's numbering stands. Each block holds one binder with its values, some of them ahead of it.
Molecular target: T1, GST-Pex3ΔN (aa 41–455, cytosolic domain) (P. pastoris, UniProt Q92262 41-455)
T1 sequence (looked up): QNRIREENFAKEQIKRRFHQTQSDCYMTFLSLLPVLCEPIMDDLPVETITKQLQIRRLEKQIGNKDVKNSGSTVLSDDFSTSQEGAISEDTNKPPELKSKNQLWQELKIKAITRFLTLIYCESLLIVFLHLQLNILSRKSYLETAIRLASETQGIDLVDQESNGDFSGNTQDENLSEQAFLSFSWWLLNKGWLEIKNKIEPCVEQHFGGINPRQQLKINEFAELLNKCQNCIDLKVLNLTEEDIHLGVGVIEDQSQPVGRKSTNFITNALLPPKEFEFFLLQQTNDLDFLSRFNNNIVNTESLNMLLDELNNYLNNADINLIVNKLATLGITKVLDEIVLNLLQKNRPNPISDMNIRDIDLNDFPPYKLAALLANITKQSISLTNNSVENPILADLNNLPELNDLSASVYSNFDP
Test: pull-down

binding result: binds
B1: His-Atg37ΔC (WT) (domain or fragment, P. pastoris, UniProt C4R8D7 1-278, looked up)
chain: MSESIDRVFVKAIGTIRTLSSRTGYGGLPRPPIENRVKLYGLYKQATEGDVAGVMERPLGDSPEAEAAKRKWDAWRSEQGTSKTEAKRQYISYLIDTMKQFASDTTEARELLSELEYLWNQISDVSPNDSSDSESNAGPAQLLQNHAQLLSRDISVVDDPITSSGMDPMYNPSFQRHNSSRFINASTAERLNSLSNYYSNLNPTPPLSSRRYQGSVTPRNVDFIKWQNDINNSINKLNHDLQLLANRRLQSSASDPLYSKRGSDLTHDDFVNDISSSS

binding result: binds
B2: His-Atg37ΔC acbs mutant (Y40F K44A) (domain or fragment, P. pastoris, UniProt C4R8D7 1-278, looked up)
chain: B1 chain with Y40F, K44A

From article PMC3926955 (The Journal of Cell Biology, 2014)
